According to paper PMC3469102, “^64Cu-NODAGA-c(RGDyK) Is a Promising New Angiogenesis PET Tracer: Correlation between Tumor Uptake and Integrin α V β 3 Expression in Human Neuroendocrine Tumor Xenografts” (International Journal of Molecular Imaging, 2012):
Where two headings read alike, the source gives them in different places.

What was measured:
in vitro = in vitro ADME, nude mice; details: nude, mouse, plasma
Description: The product (Figure 1) was used without further purification. HPLC analysis was performed with a Jupiter column, 4u Proteo 90A, 250 × 4.6 mm (Phenomenex, Torrance, CA, USA) and flow 1.5 mL/min. The HPLC mobile phase was solvent A, 0.1% trifluoroacetic acid in water, and solvent B, 0.1% trifluoroacetic acid in acetonitrile. Gradient: 0–2 min 15% B, 2–7 min 15–40% B, and 7–10 min 40–15% B. […] Plasma was mixed with equal amounts of acetonitrile after incubation. The resulting mixture was centrifugated and the supernatant was collected and filtered.

in vivo = details: nude, mouse, iv, 1.6 MBq, total radioactivity
Description: A longitudinal dynamic study was performed scanning a mouse at 1, 2, and 18 hours after intravenous injection of 1.6 MBq ^64Cu-NODAGA-c(RGDyK), allowing dynamic information of the tracer biodistribution in tumors as well as in the other organs of interest. The PET scans were performed using a small animal PET scanner (MicroPET Focus 120, Siemens Medical Solutions, Knoxville, TN, USA). The energy window for the emission PET scans was set to 350–650 keV and the time resolution was 6 ns. Scan time was 10 min.
The acquired data for emission scan was stored in list-mode format and postprocessed to obtain 2 bytes 128 × 144 × 32 sinograms. Finally, the emission sinograms were reconstructed using MAP Algorithms and resulted into 4-byte 256 × 256 × 95 image sets with a zoom factor of 1.443 and a voxel size of 0.87 × 0.87 × 0.79 mm^3. Furthermore, the emission sinograms were corrected for dead time and decay time. Scatter and attenuation corrections were not applied to the emission data. The system was calibrated to provide activity concentrations as Bq/cc.
The small animal CT scans of the mouse parallel with the PET scans were acquired using a small animal computed tomography (microCAT II, Siemens Medical Solutions). The acquisition time of each CT scan was 6.5 minutes generating 360 projections at 360° arc. The X-ray source settings were 75 kVp, 500 μA, and 270 ms for the voltage, the current, and the exposure time, respectively. The CT projections on the 3,000 × 2,970 CCD crystal were binned by 4 to increase sensitivity and reduce the dataset size. The projections were reconstructed by real-time reconstruction algorithm (the COBRA toolbox) using Shepp-Logan filter into 768 × 768 × 512 matrix with a voxel size of 0.092 × 0.092 × 0.092 mm^3.
The fusion of the PET and CT images was performed manually using the ASIPro Toolbox (Siemens Medical Solutions). Also the analyses of PET images were performed in the ASIPro toolbox.
The measurement of the activity uptake in the tumors and the organs were estimated by manually outlining on CT images. […] The 3D ROIs of the organs were then applied on the corresponding PET images. The results of these ROIs acquired the concentration of the tracer in the organs expressed in percentage of the injected dose per gram tissue (%ID/g).

[1] = parameters: species or system mice; details: mouse, in vivo
Description: Dose Assessment/EXponential Modeling software (OLINDA/EXM; Vanderbilt University, Nashville, TN, USA). To ensure a conservative estimate, the urinary elimination fraction was set to 75% with voiding intervals of 5 hours. The effective dose for both adult male and female were then calculated using OLINDA/EXM.

[2] = system: human neuroendocrine tumor xenografts (H727); experiment: Biodistribution (gamma counting) in mice with H727 xenografts; details: female, NMRI nude, mouse, in vivo, iv, 2 MBq, 18 h
Description: (§1) Female NMRI (Naval Medical Research Institute) nude mice (6 weeks upon arrival) were acquired from Taconic Europe, Lille Skensved, Denmark. The mice were acclimated one week in the animal facilities before taken into experiments. […] […] Hypnorm^R (Janssen Pharmaceutica NV, Beerse, Belgium)/Dormicum^R (Roche, Basel, Switzerland). Tumors were then grown for 3-4 weeks (average tumor volume 210 mm^3). Animal care and experimental procedures were performed under the approval of the Danish Animal Welfare Council (2006/561-1124). Tumor bearing mice were anesthetized with 3% sevoflurane (Abbott Scandinavia AB, Solna, Sweden) mixed with 35% O2 in N2. […] Mice were sacrificed by neck drawing and tumors, organs (liver, kidneys, lung, spleen, heart, intestine, and muscle) and blood were collected, weighted, and radioactivity measured in a gamma counter (2480 Wizard^2, Perkin Elmer, MA, USA). Tumors were immediately placed in tubes containing RNAlater^R (Ambion Inc., TX, USA), stored overnight at 4°C, RNAlater^R then removed, and tumors stored at -80°C until total RNA extraction and further QPCR experiments were performed. […] (0.97 ± 0.03, 0.64 ± 0.04, 0.65 ± 0.04, and 0.62 ± 0.04) and decreasing further at 18 h p.i.

[3] = as above; details: female, NMRI nude, mouse, in vivo, iv, 2 MBq, total radioactivity
Description: as §1

U87MG xenograft tumors = details: in vivo; cited from earlier work
Description: The cyclic RGD peptides c(RGDfK) and […] have frequently been used for radiolabeling. c(RGDfK), cyclo [Arg-Gly-Asp-D-Phe-Lys] only differs from c(RGDyK), cyclo [Arg-Gly-Asp-D-Tyr-Lys], in one amino acid, D-Phenylalanine (D-Phe) instead of D-tyrosine (D-Tyr). D-Tyr is more hydrophilic than D-Phe and c(RGDyK) has therefore been reported as preferable due to faster renal excretion. In our study we found a faster decrease of radioactivity in kidneys, intestine, and liver from 1 to 18 h (2.2 to 0.5, 1.6 to 0.4, and 1.1 to 0.4%ID/g) than that reported for ^64Cu-NODAGA-c(RGDfK) in the sam ... || NODAGA-c(RGDy/fK) has been labeled with ^68Ga and NODAGA-c(RGDfK) also with ^64Cu. One paper compared ^68Ga- and ^64Cu-NODAGA-c(RGDfK) and found the highest tracer uptake using ^68Ga-NODAGA-c(RGDfK) compared to ^64Cu-NODAGA-c(RGDfK) (5.2 versus 3.8%ID/g, 1 h p.i. in highly angiogenic U87MG xenograft tumors) but also 3 times higher tumor-to-blood ratio [12]. We found similar T/B ratio (12.7) after 1 hour using ^64Cu-NODAGA-c(RGDyK) as they did with ^64Cu-NODAGA-c(RGDfK). The advantage of ^64Cu labeling is the possibility of delayed imaging up to 12 or 18 h post ...

With N=C(N)NCCC[C@@H]1NC(=O)[C@H](CCCCNC(=O)CCC(C(=O)O)N2CCN(CC(=O)O)CCN(CC(=O)O)CC2)NC(=O)[C@@H](Cc2ccc(O)cc2)NC(=O)[C@H](CC(=O)O)NC(=O)CNC1=O (stereo partly drawn) [^64Cu-NODAGA-c(RGDyK), metal not drawn] the remaining at 24 h, 20 MBq/mL (in vitro) was 88%, the tissue to tissue ratio (in vivo) was 6.9 ± 0.8 and the tissue uptake at 1 h (in vivo) was 1.15 %ID/g. The tissue uptake at 2 h (in vivo) was 0.99 %ID/g, the tissue uptake at 18 h (in vivo) was 0.76 %ID/g and the “Residence time, Heart” value [1] was 3.54E − 03 Bq ∗ h/Bq. The “Residence time, Kidneys” value [1] was 2.10E − 01 Bq ∗ h/Bq, the “Residence time, Liver” value [1] was 3.00E − 01 Bq ∗ h/Bq and the “Residence time, Lungs” value [1] was 1.29E − 02 Bq ∗ h/Bq. The “Residence time, Small intestine” value [1] was 2.79E − 01 Bq ∗ h/Bq, the “Residence time, Spleen” value [1] was 1.20E − 02 Bq ∗ h/Bq and the “%ID/g intestines” value [2] was 0.4 %ID/g. For the same molecule, the “%ID/g kidneys” value [2] was 0.5 %ID/g, the “%ID/g liver” value [2] was 0.4 %ID/g and the tissue uptake at 1 h ([3]; %ID/g intestines) was 1.6 ± 0.16 %ID/g. The tissue uptake at 2 h ([3]; %ID/g intestines) was 0.64 ± 0.04 %ID/g, the tissue uptake at 18 h ([3]; %ID/g intestines) was 0.43 ± 0.04 %ID/g and the tissue uptake at 1 h ([3]; %ID/g kidneys) was 2.2 ± 0.11 %ID/g. The tissue uptake at 2 h ([3]; %ID/g kidneys) was 0.97 ± 0.03 %ID/g, the tissue uptake at 18 h ([3]; %ID/g kidneys) was 0.51 ± 0.02 %ID/g and the tissue uptake at 1 h ([3]; %ID/g liver) was 1.05 ± 0.17 %ID/g. It also gave a tissue uptake at 2 h ([3]; %ID/g liver) of 0.65 ± 0.04 %ID/g, a tissue uptake at 18 h ([3]; %ID/g liver) of 0.43 ± 0.02 %ID/g and a tissue uptake at 1 h ([3]; %ID/g spleen) of 0.94 ± 0.11 %ID/g. It also gave a tissue uptake at 2 h ([3]; %ID/g spleen) of 0.62 ± 0.04 %ID/g, a tissue uptake at 18 h ([3]; %ID/g spleen) of 0.33 ± 0.02 %ID/g and a tissue uptake at 2 h ([3]; Mean %ID/g for H727 tumors) of 0.68 ± 0.06 %ID/g. For the same molecule, the tissue uptake at 18 h ([3]; Mean %ID/g for H727 tumors) was 0.63 ± 0.04 %ID/g, the tissue to tissue ratio at 1 h ([3]; Tumor-to-blood ratio) was 12.7 and the tissue to tissue ratio at 2 h ([3]; Tumor-to-blood ratio) was 37.2. It also gave a tissue to tissue ratio at 18 h ([3]; Tumor-to-blood ratio) of 20.2, a tissue to tissue ratio at 1 h ([3]; Tumor-to-intestine ratio) of 0.72 ± 0.08 and a tissue to tissue ratio at 2 h ([3]; Tumor-to-intestine ratio) of 1.06 ± 0.11. For the same molecule, the tissue to tissue ratio at 18 h ([3]; Tumor-to-intestine ratio) was 1.53 ± 0.11, the tissue to tissue ratio at 1 h ([3]; Tumor-to-liver ratio) was 1.08 ± 0.11 and the tissue to tissue ratio at 2 h ([3]; Tumor-to-liver ratio) was 1.03 ± 0.11. For the same molecule, the tissue to tissue ratio at 18 h ([3]; Tumor-to-liver ratio) was 1.54 ± 0.1, the tissue to tissue ratio ([3]; Tumor-to-muscle ratio) was 6.5 ± 0.7 and the tissue to tissue ratio at 1 h ([3]; Tumor-to-muscle ratio) was 4.99 ± 0.59. For the same molecule, the tissue to tissue ratio at 2 h ([3]; Tumor-to-muscle ratio) was 7.34 ± 1.16, the tissue to tissue ratio at 18 h ([3]; Tumor-to-muscle ratio) was 7.09 ± 0.52 and the tissue to tissue ratio at 1 h ([3]; 1 h p.i., biodistribution, H727 xenograft mice, read-out: Tumor-to-kidney ratio) was 0.51 ± 0.05. For the same molecule, the tissue uptake at 1 h ([3]; 1 h p.i., i.v. 2.0 ± 0.7 MBq, gamma counter, mean ± SEM, read-out: Mean %ID/g for H727 tumors) was 1.15 ± 0.13 %ID/g and the tissue to tissue ratio at 18 h ([3]; 18 h p.i., biodistribution, H727 xenograft mice, read-out: Tumor-to-kidney ratio) was 1.2 ± 0.09.
For ^68Ga-NODAGA-c(RGDfK) (head to tail), the “tumor-to-blood ratio, times higher than ^64Cu-NODAGA-c(RGDfK)” value (U87MG xenograft tumors) is given as 3 times.
